Publication PMC9590162
“And” between values parts separate entries of the source, which are not always exact repeats. Identical values can stand only once.

Target: human nesfatin-1 (human) (UniProt P80303)
Experiment: AUC; SV-AUC, 20 °C, 50 000 rpm, buffer B with 300 or 500 μM ZnCl2; hN1 at 0.7, 1.0, 1.3 mg/ml; monomer to dimer

percent of the two main sedimenting species in the larger (dimer) fraction: 58% and 45% and 51%
stoichiometry N: 2
Substance: human nesfatin-1 (from UniProt P80303 25-106) (peptide)
